Source: patent US20120258482A1, “PCNA […]” (INDIANA UNIVERSITY RESEARCH AND TECHNOLOGY CORPORATION, priority 2009, published 2012)

Test system: purified recombinant PCNA
Assay: Vapor diffusion assay of anti-Flag immunoprecipitates with purified recombinant PCNA
Assay type: biochemical, human
Details: anti-Flag immunoprecipitate from SK-Br-3 cells, 2 μg 6× His-PCNA
Protocol: Vapor diffusion assay. The assay was performed basically as previously described (Murray, E. D., Jr. & Clarke, S. J Biol Chem 259, 10722-10732 (1984). MCF7 breast cancer cell extracts were assayed 1-2 h in the presence of [^3H-methyl]-SAM (NEN). Following incubation, extracts were equilibrated with 100 mM NaOH with 2% SDS and spotted onto filter paper folded into an accordion pleat and placed into the neck of a vial above scintillation fluid. ^3H-methanol present in the scintillation fluid was measured the following day (See FIG. 1).
Protein expression and purification. HiTrap phenyl Sepharose HP and Superdex S200 columns were purchased from GE Biosciences. Chromatography was performed using a Biologic DuoFlow (BioRad). […] The CBP tag lacks both aspartic and glutamic acids. […] (Podust et al., Biochemistry 34, 8869-8875 (1995). A eukaryotic expression vector expressing a Flag-Arm1 fusion was transfected into and transiently expressed in SK-Br-3 cells with Fugene 6 (Roche). Anti-Flag immunoprecipitations were performed with Anti-Flag M2 Affintiy Gel (Sigma) and detected by Western analysis using anti-DDK antibodies (Origene). PIP-affinity beads were generated by covalently coupling synthetic p21 PIP peptide (Anaspec) to CH Sepharose (GE Biosciences). […]

B1: Flag-Arm1: Flag-tagged C6orf211 protein fusion, PCNA-dependent carboxyl methyltransferase (SEQ ID NO: 33) (protein, listed as Homo sapiens)
chain: MAVVPASLSGQDVGSFAYLTIKDRIPQILTKVIDTLHRHKSEFFEKHGEEGVEAEKKAISLLSKLRNELQTDKPFIPLVEKFVDTDIWNQYLEYQQSLLNESDGKSRWFYSPWLLVECYMYRRIHEAIIQSPPIDYFDVFKESKEQNFYGSQESIIALCTHLQQLIRTIEDLDENQLKDEFFKLLQISLWGNKCDLSLSGGESSSQNTNVLNSLEDLKPFILLNDMEHLWSLLSNCKKTREKASATRVYIVLDNSGFELVTDLILADFLLSSELATEVHFYGKTIPWFVSDTTIHDFNWLIEQVKHSNHKWMSKCGADWEEYIKMGKWVYHNHIFWTLPHEYCAMPQVAPDLYAELQKAHLILFKGDLNYRKLTGDRKWEFSVPFHQALNGFHPAPLCTIRTLKAEIQVGLQPGQGEQLLASEPSWWTTGKYGIFQYDGPL
modifications: Flag tag
  PCNA-dependent carboxyl methyltransferase activity: Significant levels
